Results on two molecules are retold here after patent US20050014931A1 (ABGENIX, published 2005).

For this assay, the target named is BSA (UniProt P02769 25-607). Put plainly: ELISA screen of hybridoma supernatants.
Chain of BSA (P02769 25-607 limits assumed): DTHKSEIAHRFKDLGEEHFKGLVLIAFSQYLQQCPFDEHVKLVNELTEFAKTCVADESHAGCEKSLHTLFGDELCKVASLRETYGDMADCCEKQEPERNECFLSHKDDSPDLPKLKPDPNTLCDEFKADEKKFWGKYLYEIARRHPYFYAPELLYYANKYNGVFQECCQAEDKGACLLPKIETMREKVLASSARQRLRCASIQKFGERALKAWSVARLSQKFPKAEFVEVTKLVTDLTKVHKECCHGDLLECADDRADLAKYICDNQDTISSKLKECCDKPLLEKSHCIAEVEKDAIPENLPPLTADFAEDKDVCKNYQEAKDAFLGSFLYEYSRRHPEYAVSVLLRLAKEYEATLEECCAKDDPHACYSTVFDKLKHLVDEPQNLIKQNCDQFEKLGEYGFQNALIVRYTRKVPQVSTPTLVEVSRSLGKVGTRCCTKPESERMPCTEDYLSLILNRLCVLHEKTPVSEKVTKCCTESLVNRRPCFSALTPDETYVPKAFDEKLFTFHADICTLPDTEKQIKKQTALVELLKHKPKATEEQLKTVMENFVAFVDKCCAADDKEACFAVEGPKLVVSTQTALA

B1: Mab 1A2 (antibody, V domains shown)
VH: not shown
VL: DIELTQSPDFQSVTPKEKVTITCRASQSIGSSLHWYQQKPDQSPKLLIKYASQSFSGVPSRFSGSGSGTDFTLTINSLEAEDAATYYCHQSSSLPRTFGQGTKVEIKR
In the case of B1, the binding result was “no binding”.

B2: Mab 1F10/7C5 (antibody, V domains shown)
VH: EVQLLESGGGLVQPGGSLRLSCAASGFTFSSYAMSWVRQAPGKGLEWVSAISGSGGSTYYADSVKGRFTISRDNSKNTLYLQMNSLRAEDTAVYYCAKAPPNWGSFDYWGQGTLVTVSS
VL: DIELTQSPLSLPVTLGQPASISCRSSQSLVYSDGNTYLNWFQQRPGQSPRRLIYKVSNWDSGVPDRFSGSGSGTDFTLKISRVEAEDVGVYYCMQGTHWPRTFGQGTKVEIKR
notes: also called Mab 7C5
B2: the binding result was “no binding”.
